2 molecules from patent US20110223176A1 (AbbVie / Abbott, published 2011) can be followed below.

Assay [1] has as its target T1, human BSG2 (basigin isoform 2) on the cell surface (human, UniProt P35613 140-385).
T1 construct: Presented on stably transfected BAF3 cells or endogenously on human tumor cell lines (HepG2, MiaPaCa-2, DoHH-2); also called hBSG2; CD147
T1 sequence: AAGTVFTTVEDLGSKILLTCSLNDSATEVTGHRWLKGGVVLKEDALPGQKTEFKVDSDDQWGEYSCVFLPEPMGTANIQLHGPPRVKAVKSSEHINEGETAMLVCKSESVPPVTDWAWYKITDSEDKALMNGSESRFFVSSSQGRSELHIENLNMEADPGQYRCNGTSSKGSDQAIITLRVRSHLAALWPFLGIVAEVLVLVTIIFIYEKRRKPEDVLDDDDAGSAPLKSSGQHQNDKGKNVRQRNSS
The assay is described as follows: receptor binding assay, Eu-labeled antibody on cells expressing human BSG2. As for the experimental part: Cell lines expressing BSG2 were harvested and washed once in assay buffer (PBS, 0.1% BSA, 0.02% Na Azide, 10 mM EDTA) and resuspended to 5×10⁶ cells per mL. Serial 1:2 dilutions of ⁺³Eu-labeled anti-BSG2 antibody stock in assay buffer were made for final concentrations ranging from 1.6×10⁻⁸-7.7×10⁻¹² M, and a 4 mg/mL solution of unlabeled anti-BSG2 antibody was also prepared. To 96 well round bottom plates, 25 μl of ⁺³Eu-labeled antibody dilutions were added to 25 μl buffer (total counts), or 25 μl of unlabeled antibody were added to 25 μl buffer (background counts). 50 μl of cells at 2.5×10⁵ cells per well were then added to all samples, mixed gently, and incubated on ice for 1 hour. Cell bound antibody was then separated from unbound antibody by transferring 20 μL of the reaction mixture to Acrowell 96 well filter plates (Pall PN 5020), centrifuged for 5 min (2200 rpm), washed 3× with 150 μL cold assay buffer, and centrifuged for 5 min. Signal was determined by incubating samples with 150 μL/well of enhancement buffer and read using Envision. The specific counts were determined by subtracting the background counts (cells+labeled antibody+excess cold antibody) from the corresponding total counts (cells+labeled antibody) for each antibody concentration. The labeled antibody concentration versus total counts was analyzed using Graphpad Prism 4 to calculate Kd and Bmax values.
(§1) BSG2 antibody binding activities against whole cells expressing human or cynomolgus monkey BSG2 were assessed by ECL using MSD technology (described in Example 1.3) and the receptor binding assay (described in Example 1.4) and are shown in Table 11.

Assay [2] deals with T1, human BSG2 (basigin isoform 2) on the …. The experiment in a line: flow cytometry (FACS) on BAF3 cells expressing human BSG2. On the procedure: (§2) Stable cell lines overexpressing cell-surface BSG2 or human tumor cell lines were harvested from tissue culture flasks, washed three times and resuspended in phosphate buffered saline (PBS) containing 1% bovine serum albumin and 1 mM CaCl₂ (FACS buffer). 5×10⁵ cells were incubated with antibodies at various concentrations in FACS buffer for 60 minutes on ice. Cells were washed twice and the bound murine monoclonal antibody was detected with a goat Fab′2 anti-mouse IgM+IgG+IgA (H+L) R-phycoerythrin-conjugated antibody (Southern Biotechnology Associates, Inc., Birmingham, Ala., Catalog No. 1012-08) diluted 1:500. Following incubation on ice (4° C., 60 minutes), cells were washed three times and resuspended in FACS buffer. Fluorescence was measured using a Becton Dickinson FACSCalibur-HTS (Becton Dickinson, San Jose, Calif., US). Data were analyzed using Graphpad Prism software and EC₅₀ values were reported as the concentration of antibody to achieve 50% of maximal BSG2 antibodies binding to BSG2 expressing cells.
Background: In flow cytometry, cells or beads pass a laser one at a time.

The target is the same in assay [3]. The assay is described as follows: cell-based or functional assay.
For assay [4] the target is unchanged. The experiment in a line: cell-based ECL (MSD) binding on whole cells expressing human BSG2.
Assay [5] concerns the target T2, purified recombinant human BSG2 extracellular domain (human, UniProt P35613 22-325).
T2 construct: also called Human BSG2 ECD
T2 sequence: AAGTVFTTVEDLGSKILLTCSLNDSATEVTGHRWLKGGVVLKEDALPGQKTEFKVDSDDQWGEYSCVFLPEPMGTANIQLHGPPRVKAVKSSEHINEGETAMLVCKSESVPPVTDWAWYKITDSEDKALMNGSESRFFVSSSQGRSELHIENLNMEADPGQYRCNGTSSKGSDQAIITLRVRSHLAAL
The assay is described as follows: SPR (Biacore), mAb captured by anti-mouse Fc, BSG2 ECD injected, 25 C. As for the experimental part:
(§3) Binding of BSG2 antibodies to a purified recombinant BSG2 extracellular domain (ECD) was determined by surface plasmon resonance-based measurements with a Biacore® instrument (either a Biacore 2000, Biacore 3000, or Biacore T100; GE Healthcare, Piscataway, N.J., US). The assay format for mAb affinity analysis was Fc-based capture via immobilized anti-Fc IgG. A standard amine coupling protocol was employed to immobilize Fc-specific IgG via primary amines to the carboxy-methyl (CM) dextran surface of CMS sensorchips. For the study of mouse anti-human BSG2 mAbs, anti-mouse Fc was used as the immobilized capture reagent. An automated protocol, available on the Biacore 2000, was used to immobilize 8000-10000RU of capture reagent in all 4 flowcells of the sensorchip. Binding was recorded as a function of time and kinetic rate constants were calculated. In this assay, on-rates as fast as 10⁷M⁻¹ s⁻¹ and off-rates as slow as 10⁻⁵ s⁻¹ can be measured.
(§4) Briefly, the CM-dextran surfaces were activated by freshly prepared 1:1 […] 3-(N,N-dimethylamino)propyl-N-ethylcarbodiimide (EDC). Then the anti-Fc IgG capture reagent (20 μg/ml in 10 mM sodium acetate, pH 4.5) was applied to the surface followed by deactivation of the surface and blocking of the residual reactive sites with 1M ethanolamine (pH 8.5). The running buffer employed was PBS-PB [1×PBS (Sigma P3813), pH 7.4, 0.005% P20 surfactant, 0.1 mg/ml BSA (Sigma-A7906)] and the assay temperature was 25° C. All reagents were diluted into running buffer to the specified concentrations. Each experimental cycle consisted of the following steps: (1) anti-BSG2 mAbs at 0.5 to 1 μg/ml were captured in flowcells 2, 3 or 4 to a level of 100-120RU. All measurements were referenced against flowcell 1 which had no captured anti-BSG2 mAb; (2) human BSG2 ECD was injected through all 4 flowcells, 240 μl at 80 μl/min. After the antigen injection, dissociation was monitored for 600 seconds at 80 μl/min; and (3) the anti-Fc capture surface was regenerated with 10 mM glycine, pH 1.5.
(§5) The BSG2 antibody binding affinities were determined by the BIACORE technology as described in Example 1.2. Table 10 represents the antibody binding kinetics against human and cynomolgus monkey BSG2 extracellular domain (ECD).

Assay [6] deals with T1, human BSG2 (basigin isoform 2) on the …. The experiment in a line: flow cytometry (FACS) on HepG2 hepatocellular carcinoma cells (cell-surface BSG2). As for the experimental part: as §2
For assay [7], the target named is T3, cynomolgus monkey BSG2 on the cell surface (cynomolgus monkey).
T3 construct: whole, on cells; also called BAF3-cyno BSG2; Cyno BSG2
The assay is described as follows: flow cytometry (FACS) on BAF3 cells expressing cynomolgus BSG2. On the procedure: as §2

Assay [8] has as its target T3, cynomolgus monkey BSG2 on the cell …. The experiment in a line: cell-based ECL (MSD) binding on whole cells expressing cynomolgus BSG2. On the procedure:
Cells were plated at 25,000 cells/well in 25 μl PBS using 96 well MSD high binding plates (MSD, catalogue no. L11XB-3), and incubated at 37° C. for 1 hour. 25 μl/well of blocking solution (30% serum in PBS) was added to the plates for 30 minutes at room temperature with mild agitation. Plates were then incubated with 25 μl/well of BSG2 antibodies (10 μg/ml) diluted in assay buffer (10% serum in PBS) for 1 hour at room temperature with mild agitation, and then washed 3× with PBS. Goat anti-mouse or anti-human IgG sulfotag was added at 1 μg/ml for 1 hour with mild agitation, and plates were washed 3× with PBS. After the final wash, plates were incubated with 2×MSD surfactant-free read buffer (catalogue no. R92TD-2) and the signal was detected on a MSD SECTOR Imager 6000. Data were analyzed using Graphpad Prism software and EC₅₀ values were reported.
as §1

Assay [9] deals with T4, cynomolgus monkey BSG2 extracellular domain (cynomolgus monkey).
T4 construct: extracellular domain; also called Cynomolgus BSG2 ECD
The assay is described as follows: SPR (Biacore), mAb captured by anti-mouse Fc, BSG2 ECD injected, 25 C. As for the experimental part:
as §3, §4, §5

B1: mouse anti-human BSG2 monoclonal antibody SZ66-2D2-2A1 (antibody, mouse IgG2a, kappa, V domains shown)
VH: QVQLQQPGAEIVRPGASVKLSCKASGYTFTDYWMNWVKLRPGQGLEWIGIIDPSDSYASYNQKFKGKATLTVDESSSTAYMQLSSLTSEDSAVYYCARKSYYGGNYYYAMDYWGQGTSVTVSS
VL: EIVLTQSPALMAASPGEKVTITCSVSSSINSINLHWYRQKSETSPKPWIYGTSNLASGVPVRFSGSGSGTSYSLTISSMEAEDAATYYCQQWSSYPLTFGAGTKLELKR
notes: Hybridoma antibody, mouse IgG2a/kappa
Regarding B1, the values for the Kd in assay [1] and in [5] were 0.15 nM and 47 nM, respectively. Besides, the EC50 – broadly, the concentration that produces a half-maximal response – in assay [2] worked out at 0.14 nM; in assay [4], 0.3 nM; in assay [6], 0.17 nM. Besides, the “CDC assay (% killing at 10 µg/ml Ab), MiaPaCa-2 pancreatic cancer cells” value in [3] came to 84 % killing. Moreover, in [5], the koff – broadly, the rate constant with which the complex falls apart – is 0.019 s⁻¹. Further, the kon (commonly the second-order rate constant of association) in [5] was 410000 M⁻¹ s⁻¹.

B2: mouse anti-human BSG2 monoclonal antibody EB41-1F4-2C1 (antibody, mouse IgG1, V domains shown)
VH: EVKLEESGGGLVQPGGSMKLSCVASGFTFSNFWMDWVRQSPEKGLEWVAEIRLKSTNYATHYAESVKGRFTISRDDSKSSVYLQMNNLRAEDTGIYYCTATSTGYWGQGTTLTVSS
VL: SIVMTQSPKILLVSAGDRVTITCKASQSVSNDVAWYQQKPGQSPKLLIYYASNRYTGVPDRFTGSGYGTDFTFTISTVQAEDLAVYFCQQDYSSPYTFGGGTKLEIK
notes: Hybridoma antibody, mouse IgG1/kappa
Regarding B2, the Kd (commonly the free concentration of one partner at which half of the binding sites on the other are occupied at equilibrium, for simple one-to-one binding) in [1] came out at 0.4 nM; in assay [9], 1600 nM; in [5] it was 2.5 nM. Besides, the EC50 in assay [7] amounted to 0.71 nM; in assay [2], 0.2 nM; in assay [4], 0.4 nM; in assay [8], 16 nM; in assay [6] it was 0.17 nM. The values for the koff in [9] and in assay [5] were 0.6 s⁻¹ and 0.001 s⁻¹, respectively. Moreover, the kon was determined as 377000 M⁻¹ s⁻¹ in assay [9] and 400000 M⁻¹ s⁻¹ in assay [5].
